Biological target: CD122/CD132 complex (UniProt P14784)
Test: cell-based or functional assay

CD122/CD132 complex, sequence (P14784 27-551 limits assumed, chain 1 of 2): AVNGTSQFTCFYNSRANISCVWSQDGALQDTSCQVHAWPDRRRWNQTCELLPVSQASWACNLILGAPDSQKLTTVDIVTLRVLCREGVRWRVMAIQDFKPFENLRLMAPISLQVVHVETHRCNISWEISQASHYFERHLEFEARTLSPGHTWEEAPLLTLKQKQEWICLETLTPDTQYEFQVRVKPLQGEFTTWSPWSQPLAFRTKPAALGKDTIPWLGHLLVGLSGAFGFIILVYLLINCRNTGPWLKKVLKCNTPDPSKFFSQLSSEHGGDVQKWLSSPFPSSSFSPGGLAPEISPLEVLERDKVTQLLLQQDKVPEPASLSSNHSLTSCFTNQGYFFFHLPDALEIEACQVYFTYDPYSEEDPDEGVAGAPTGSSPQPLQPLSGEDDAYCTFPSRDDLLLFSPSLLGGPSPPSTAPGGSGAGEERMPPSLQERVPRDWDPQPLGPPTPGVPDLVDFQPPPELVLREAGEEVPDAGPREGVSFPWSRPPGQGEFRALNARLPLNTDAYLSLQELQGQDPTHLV
CD122/CD132 complex, sequence (P31785 23-369 limits assumed, chain 2 of 2, further chain): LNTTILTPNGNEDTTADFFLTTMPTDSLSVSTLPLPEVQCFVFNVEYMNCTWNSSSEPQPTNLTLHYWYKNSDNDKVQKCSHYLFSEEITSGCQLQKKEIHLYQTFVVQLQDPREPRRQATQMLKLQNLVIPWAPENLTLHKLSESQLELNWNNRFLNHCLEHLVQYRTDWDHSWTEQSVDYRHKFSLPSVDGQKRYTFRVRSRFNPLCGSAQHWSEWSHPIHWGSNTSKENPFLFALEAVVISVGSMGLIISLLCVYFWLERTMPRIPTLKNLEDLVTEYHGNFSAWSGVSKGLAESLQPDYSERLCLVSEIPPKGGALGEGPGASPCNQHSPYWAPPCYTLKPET

Work on “Fc-IL15×Fc-IL15Rα sushi domain fusion protein (Fc fusion)” yielded an EC50, IL2 reporter assay (HEK 293 reporter cells, SEAP, absorbance at 650 nM) of 0.066 nM.

For “Recombinant IL-15 (PeproTech 200-15) (from UniProt P40933 49-162) (ligand)”, the EC50, IL2 reporter assay (HEK 293 reporter cells, SEAP, absorbance at 650 nM) was 0.021 nM.

Reference: patent US20230116446A1
